According to patent US20250154277A1 (CONCEPT TO MEDICINE BIOTECH, published 2025):

T1: human 5T4-His protein (human, UniProt Q13641 32-355)
T1 construct: also called recombinant 5T4 protein (human 5T4-his tag); human 5T4 protein; not shown: His tag
T1 sequence (looked up): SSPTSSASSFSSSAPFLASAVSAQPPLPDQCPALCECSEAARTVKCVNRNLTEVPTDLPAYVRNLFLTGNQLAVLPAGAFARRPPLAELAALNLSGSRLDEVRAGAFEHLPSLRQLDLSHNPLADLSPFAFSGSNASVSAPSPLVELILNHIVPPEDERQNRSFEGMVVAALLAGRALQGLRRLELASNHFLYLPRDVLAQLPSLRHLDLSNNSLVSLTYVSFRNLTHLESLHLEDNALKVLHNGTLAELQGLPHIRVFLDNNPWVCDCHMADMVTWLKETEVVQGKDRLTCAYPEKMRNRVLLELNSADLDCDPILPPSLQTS

T2: cynomolgus 5T4 protein (cynomolgus monkey, UniProt Q4R8Y9 35-355, limits assumed)
T2 construct: Coated protein in ELISA; the screening step names a cyno 5T4-His protein; also called cyno 5T4; recombinant cyno 5T4-His protein
T2 sequence (looked up): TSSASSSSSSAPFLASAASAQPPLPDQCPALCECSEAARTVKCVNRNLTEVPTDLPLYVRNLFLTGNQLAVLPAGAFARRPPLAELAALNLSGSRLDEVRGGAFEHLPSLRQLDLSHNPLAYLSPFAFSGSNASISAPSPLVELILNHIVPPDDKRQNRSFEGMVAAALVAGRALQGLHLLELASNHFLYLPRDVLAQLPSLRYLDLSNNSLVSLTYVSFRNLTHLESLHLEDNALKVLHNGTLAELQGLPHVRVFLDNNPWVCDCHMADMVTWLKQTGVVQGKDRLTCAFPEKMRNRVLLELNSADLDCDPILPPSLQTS


Legend:
human 5T4-His protein [1] = target: T1, human 5T4-His protein; experiment: ELISA, coated 5T4-His
Experimental: To evaluate the binding activity of 159D5 humanized antibodies to human 5T4, the 159D5 chimeric antibody along with 159D5 humanized mAbs were subjected to ELISA test.
Briefly, microtiter plates were coated with human 5T4-His protein at 1 μg/ml in PBS, 100 μl/well at 4° C. overnight, then blocked with 150 μl/well of 10% BSA. Serial dilutions of antibodies were added to each well and incubated for 1 hour at 37° C. The plates were washed with PBS/Tween and then incubated with Goat Anti-Human IgG-HRP for 30 mins at 37° C. After washing, the plates were developed with TMB substrate and analyzed by spectrophotometer at OD 450 nm. As shown in FIG. 14 and Table 12, most of the humanized antibodies bound to human 5T4 with high activity.

human 5T4-His protein [2] = target: T1, human 5T4-His protein; experiment: SPR Biacore, Protein A capture, 50 nM 5T4-His
Experimental: The binding of the 159D5 humanized antibodies to recombinant 5T4 protein (human 5T4-his tag) was tested with Biacore using a capture method. The mAbs were captured using Protein A chip. 50 nM of human 5T4-his tag protein was injected over captured antibody for 3 mins at a flow rate of 30 μl/min. The antigen was allowed to dissociate for 600 s. All the experiments were carried out on a Biacore T200. Data analysis was carried out using the Biacore T200 evaluation software.

human 5T4-His protein [3] = target: T1, human 5T4-His protein; experiment: ELISA, coated antigen
Experimental: (§1) ELISA testing was carried out to evaluate the binding of chimeric antibodies to human and cynomolgus, respectively. The antibody portion of naptumomab (NeoTX) that targets 5T4 (abbreviated as naptumomab in the present disclosure), was generated and used as a benchmark.
(§2) Briefly, microtiter plates were coated with human and cynomolgus 5T4 proteins at […] in PBS, 100 μl/well at 4° C. overnight, then blocked with 150 μl/well of 1% BSA. Serial dilutions of chimeric antibodies were added to each well and incubated for 1 hour at RT. The plates were washed with PBS/Tween and then incubate with mouse-anti-human IgG Fc antibody conjugated with Horse Radish Peroxidase (HRP) for 30 mins at RT. After washing, the plates were developed with TMB substrate and analyzed by spectrophotometer at OD 450 nm. All the 5T4 chimeric mAbs bound to human and cynomolgus 5T4 (FIG. 1-2 and Table 3).

cynomolgus 5T4 protein = target: T2, cynomolgus 5T4 protein; experiment: ELISA, coated antigen
Experimental: as §1, §2

human 5T4-His protein [4] = target: T1, human 5T4-His protein; experiment: ELISA, coated 5T4-His; remark: listed apart in the source
Experimental: To evaluate the binding activity of clones, the 286B4 chimeric antibody along with 286B4 humanized mAbs were subjected to ELISA test.
Briefly, microtiter plates were coated with human 5T4-His protein at 1 μg/ml in PBS, 100 μl/well at 4° C. overnight, then blocked with 150 μl/well of 1% BSA. 4-fold dilutions of tested antibodies starting from 20 nM were added to each well and incubated for 1 hour at 37° C. The plates were washed with PBS/Tween and then incubated with Goat Anti-Human IgG-HRP for 30 mins at 37° C. After washing, the plates were developed with TMB substrate and analyzed by spectrophotometer at OD 450 nm. As shown in FIG. 16 and Table 15, most of the humanized clones bound to human 5T4 with high potency.

human 5T4-His protein [5] = target: T1, human 5T4-His protein; experiment: SPR Biacore, Protein A capture
Experimental: The binding of the chimeric mAbs from these clones against recombinant 5T4 protein (human 5T4-his tag) was tested with Biacore using a capture method. The mAbs were captured using Protein A chip. A serial dilution of human 5T4-his tag protein was injected over captured antibody for 2-3 mins at a flow rate of 30 μl/min. The antigen was allowed to dissociate for 360-1000 s. All the experiments were carried out on a Biacore T200. Data analysis was carried out using Biacore T200 evaluation software.

human 5T4-His protein [6] = target: T1, human 5T4-His protein; experiment: SPR Biacore, Protein A capture; remark: listed apart in the source
Experimental: The binding of the 286B4 humanized antibodies to recombinant 5T4 protein (human 5T4-his tag) was tested with Biacore using a capture method. The mAbs were captured using Protein A chip. A serial dilution of human 5T4-his tag protein was injected over captured antibody for 3 mins at a flow rate of 30 μl/min. The antigen was allowed to dissociate for 280-800 s. All the experiments were carried out on a Biacore T200. Data analysis was carried out using the Biacore T200 evaluation software.

Row | Binder | EC50 (human 5T4-His protein [1]) [nM] | Kd (human 5T4-His protein [2]) [nM] | koff (human 5T4-His protein [2]) [s⁻¹] | kon (human 5T4-His protein [2]) [M⁻¹ s⁻¹] | EC50 (human 5T4-His protein [3]) [nM] | EC50 (cynomolgus 5T4 protein) [nM] | EC50 (human 5T4-His protein [4]) [nM] | Kd (human 5T4-His protein [5]) [nM] | koff (human 5T4-His protein [5]) [s⁻¹] | kon (human 5T4-His protein [5]) [M⁻¹ s⁻¹] | Kd (human 5T4-His protein [6]) [nM] | koff (human 5T4-His protein [6]) [s⁻¹] | kon (human 5T4-His protein [6]) [M⁻¹ s⁻¹]
1 | 159D5-P1 (antibody, V domains shown, chimeric 159D5 with S62A (DS to DA) in VH CDR2; also called PTM removal antibody of 159D5-P1; 159D5-VH.S62A with 159D5 VL) VH: DVQLVESGGGLVQPGGSRKLSCTASGFTFSNFGMHWVRQAPETGLEWVAYISSGSSTFYYADAVKGRFTISRDNPKNTLFLQMTSLRSEDTAMYFCARSPAYYRYGLDYWGQGTTLTVSS VL: DIVLTQSPASLAVSLGQRATISCRASQSVSSSTFSYMHWYQQKPGQPPKLLIKSSSNLESGVPARFSGSGSGTDFTLNIHPVEEEDTATYYCQHSWEIPYTFGGGTKLEIK | 0.13 | 0.489 | 0.000163 | 334000 |  |  |  |  |  |  |  |  | 
2 | Hu159D5-2 (antibody, V domains shown, humanized) VH: EVQLVESGGGVVQPGRSLRLSCAASGFTFSNFGMHWVRQAPGKGLEWVAYISSGSSTFYYADSVKGRFTISRDNSKNTLYLQMNSLRAEDTAVYYCARSPAYYRYGLDYWGQGTTVTVSS VL: DIVMTQTPLSLSVTPGQPASISCRASQSVSSSTFSYMHWYQQKPGQPPQLLIKSSSNLESGVPDRFSGSGSGTDFTLKISRVEAEDVGVYYCQHSWEIPYTFGGGTKVEIK | 0.12 | 0.789 | 0.000227 | 287000 |  |  |  |  |  |  |  |  | 
3 | Hu159D5-3 (antibody, V domains shown, humanized) VH: EVQLVESGGGVVQPGRSLRLSCAASGFTFSNFGMHWVRQAPGKGLEWVAYISSGSSTFYYADSVKGRFTISRDNSKNTLYLQMNSLRAEDTAVYYCARSPAYYRYGLDYWGQGTTVTVSS VL: DIVLTQTPLSLSVTPGQPASISCRASQSVSSSTFSYMHWYQQKPGQPPQLLIKSSSNLESGVPDRFSGSGSGTDFTLKISRVEAEDVGVYYCQHSWEIPYTFGGGTKVEIK | 0.12 | 1.02 | 0.00024 | 235000 |  |  |  |  |  |  |  |  | 
4 | Hu159D5-7 (antibody, V domains shown, humanized) VH: EVQLVESGGGVVQPGRSLRLSCAASGFTFSNFGMHWVRQAPGKGLEWVAYISSGSSTFYYADSVKGRFTISRDNSKNTLYLQMNSLRAEDTAVYFCARSPAYYRYGLDYWGQGTTVTVSS VL: DIVMTQTPLSLSVTPGQPASISCRASQSVSSSTFSYMHWYQQKPGQPPQLLIYSSSNLESGVPDRFSGSGSGTDFTLKISRVEAEDVGVYYCQHSWEIPYTFGGGTKVEIK | 0.097 | 1.14 | 0.000253 | 221000 |  |  |  |  |  |  |  |  | 
5 | Hu159D5-1 (antibody, V domains shown, humanized) VH: EVQLVESGGGVVQPGRSLRLSCAASGFTFSNFGMHWVRQAPGKGLEWVAYISSGSSTFYYADSVKGRFTISRDNSKNTLYLQMNSLRAEDTAVYYCARSPAYYRYGLDYWGQGTTVTVSS VL: DIVMTQTPLSLSVTPGQPASISCRASQSVSSSTFSYMHWYQQKPGQPPQLLIYSSSNLESGVPDRFSGSGSGTDFTLKISRVEAEDVGVYYCQHSWEIPYTFGGGTKVEIK | 0.088 | 3.99 | 0.000294 | 73700 |  |  |  |  |  |  |  |  | 
6 | 286B4 chimeric antibody (antibody, V domains shown, chimeric mAb; also called 284B4-C) VH: DVQLHESGPGLVKPSQSLSLTCSVTGYSITNNYYWNWIRQFPGNNLEWMGYITYDGSNNYNPSLKNRISVTRDTSKNQFFLKLSSVTTEDTATYYCTRGGGQLRFDYWGQGTTLTVSS VL: SIVMTQTPKFLIVSAGDRVTITCKASQSVSNEVTWYQQKPGQSPKMLIYYASNRYTGVPDRFTGSGYGTDFTFTINTVQAEDLAIYFCQQDYSSPWTFGGGTKLEIK |  |  |  |  | 0.35 | 0.22 | 0.32 | 0.96 | 6.99e-05 | 72800 | 1.25 | 0.000113 | 90900
7 | 119G5 chimeric antibody (antibody, V domains shown, chimeric mAb) VH: QVQLQQSGPEVVKPGASVKISCKASGYTFTDYYMNWVKQSRGKSLEWIGDINPNNGGTNYNQKFKGKATLTVDKSSSTAYMELRSLTSEDSAVYYCAKEGPPGAMDYWGQGTSVTVSS VL: NIVMTQTPKFLLVSAGDRVTITCKASQSVSNHVAWYQQKPGQSPKLLIYYVSNRSIGVPDRFTGSGYGTDFTFTISTVQAEDLAVYFCQQVYSSPFTFGGGTRLEMK |  |  |  |  | 0.32 | 0.2 |  | 1.22 | 0.000159 | 130000 |  |  | 
8 | 85B10 chimeric antibody (antibody, V domains shown, chimeric mAb) VH: QVQLQQSGPELVKPGASVKISCKASGYTFTAYYVNWVKQSHGKSLEWIGDINPNNGGTNYNQKFKGKATLTVDMSSSTAYMELRSLTSEDSAVYYCAKEGPPGAMDYWGQGTSVTVSS VL: SIVLTQTPKFLLVSAGDRVPITCKASQSVSNNVAWYQQKPGQSPKLLIYYASNPYTGVPDRFTGSGYGTDFTFTITTVQAEDLAVYFCQQVYSSPFTFGGGTKLEMK |  |  |  |  | 0.34 | 0.17 |  | 0.792 | 0.000125 | 158000 |  |  | 
9 | 95F10 chimeric antibody (antibody, V domains shown, chimeric mAb) VH: QVQLQQSGPEVVNPGASVKISCKASGYTFTDYYMNWVKQSRGKSLEWIGDINPNNGGTNYNQKFKDKATLTVDKSSNTAYMELRSLTSENSAVYYCAKEGPPGAMDYWGQGTSVTVSS VL: NIVMTQTPKFLLVSAGDRVTITCKASQSVSNHVAWYQQKPGQSPKLLIYYVSNRYIGVPDRFTGSGYGTDFTFTISTVQAEDLAVYFCQQVYSSPFTFGGGTRLEMK |  |  |  |  | 0.24 | 0.17 |  | 0.337 | 0.00012 | 355000 |  |  | 
